Article PMC12680543

Key:
[1] = target: KSS-1::Strep (C. tropicalis); test: SEC-MALS; KSS-1::Strep–SKR-1 complex co-expressed in Sf9 and co-purified (StrepTrapXT ATP/Mg wash fraction, ResourceQ, Superdex 200 Increase 10/300 GL); 20 mM Tris pH 7.5, 150 mM NaCl; right-angle static light scattering
[2] = target: KLMT-1 (C. tropicalis)

| Substance | stoichiometry N [1] | half-life of KLMT-1::mNG (fluorescence time lapse of embryos) in kss-1(−) against kss-1(+) [2] |
| --- | --- | --- |
| SKR-1 (natural protein) | 1 |  |
| 3xFLAG::KSS-1 (natural protein) |  | 2.9 fold |
